Experimental data published in patent US12297265B2, “Antibody and use thereof” (SICHUAN KELUN-BIOTECH BIOPHARMACEUTICAL CO., LTD., priority 2018, dated 2025).

target: T1, human Claudin18.2 (Homo sapiens, UniProt P56856); test: FACS affinity of mouse anti-human Claudin18.2 antibodies to Ba/F3-Claudin 18.2 cells; type: binding; parameters: expressed in transfected cells; host or cells: Ba/F3 (BaF/3, DSMZ ACC300), hygromycin-selected monoclonal line
Description: The affinity of the candidates to Claudin18.2 was measured using FACS. Single hybridoma clone 1E9.2, 2C6.9, 6B9.22, 9C8.1, 16A9.11, 19G10.14 and 19H11.6 were cultured in serum-free medium and mouse antibodies were purified from 100 mL supernatant by protein A chromatography (MabSelect SuRe, GE). Ba/F3-Claudin18.1 and Ba/F3-Claudin18.2 cells were incubated with the purified mouse antibodies at various concentrations on ice for 30 min and mouse IgG was used as negative control (Thermo Fisher, Cat: 31903), followed by washing with FACS buffer (PBS+2% FBS) twice. The cells were then incubated with a fluorescent goat-anti-mouse secondary antibody (Jackson ImmunoResearch, Cat: 115-605-071) on ice for 30 min before FACS analysis.

Molecule	Max MFI (Max Mean Fluorescence Intensity)
19G10.14: mouse anti-human Claudin18.2 monoclonal antibody; VH SEQ ID NO: 52, VL SEQ ID NO: 53 (antibody, V domains shown, heavy chain variable region sequence of mouse antibody 19G10.14; light chain variable region sequence of mouse antibody 19G10.14) VH: QVQLKESGPGLVAPSQSLSITCTVSGFSFTSYGVHWVRQPPGKGLEWLGVIWAGGSTDYNAALMSRLSIRKDNSKSQVFLKMNSLQIADTAMYYCARDGHGKVGFDVWGAGTTVTVSS VL: DIVMTQSPSSLSVSAGEKVTMNCKSSQSLLNSGNQKNYLAWYQQKPGQPPKLLIYGASTRESGVPDRFTGGGSGTDFTLTISSVQAEDLAIYYCQNDHFYPFTFGSGTKLEIK	3.501 ×10^6
6B9.22: mouse anti-human Claudin18.2 monoclonal antibody; VH SEQ ID NO: 50, VL SEQ ID NO: 51 (antibody, V domains shown, heavy chain variable region sequence of mouse antibody 6B9.22; light chain variable region sequence of mouse antibody 6B9.22) VH: QVQLQQSGAELVKPGASVKMSCKAFGYTFTSYPIEWMKQNHGKSLEWIGNFHPYNDDTKYNEKFKGKAKLTVEKSSSTVYLELSRLTSDDSAVYYCARTYYGNSFAYWGQGTLVTVSS VL: DIVMTQSPSSLTVTAGEKVTMSCKSSQSLLNSGNQKNYLTWYQQKPGQPPKLLIYWASSRDSGVPHRFTGSGSGTDFTLTISSVQAEDLAFYYCQNDYFYPFTFGAGTKLELK	3.624 ×10^6
16A9.11: mouse anti-human Claudin18.2 monoclonal antibody; VH SEQ ID NO: 46, VL SEQ ID NO: 47 (antibody, V domains shown, heavy chain variable region sequence of mouse antibody 16A9.11; light chain variable region sequence of mouse antibody 16A9.11) VH: EVMLVESGGGLVKPGGSLKLSCAASGFSFSNSAMSWVRQTPEKRLEGVATISSGDSYTYYPDSVKGRFTISRDTAKNSLYLQMSSLRSEDTAVYYCTRQGYGNAMDYWGQGTSVTVSS VL: DIVMTQSPSSLTVTAGEKVTMSCKSSQSLLNSGNQKNYLTWYQQKPGQPPKLLIYWSSTRESGVPDRFTGSGSGTDFTLTISSVQAEDLAVYYCQNDYYYPLTFGAGTKLELK	5.815 ×10^6
19H11.6: mouse anti-human Claudin18.2 monoclonal antibody; VH SEQ ID NO: 44, VL SEQ ID NO: 45 (antibody, V domains shown, heavy chain variable region sequence of mouse antibody 19H11.6; light chain variable region sequence of mouse antibody 19H11.6) VH: EVMLVESGGGLVKPGGSLKLSCAASGFSFSNSAMSWVRQTPEKRLEGVATISSGDSFTYYPDTVKGRFTISRDNAKNSLYLQMSRLRSEDTAVYYCARQGYGNALDYWGQGTSVTVSS VL: DIVMTQSPSSLTVTAGEKVTMTCKSSQSLLNSGNQKNYLTWYQQKPGQPPKLLIYWSSTRESGVPDRFTGSGSGTDFTLTISSVQAEDLAVYYCQNDYYYPLTFGAGTKLELK	6.008 ×10^6
1E9.2: mouse anti-human Claudin18.2 monoclonal antibody; VH SEQ ID NO: 1, VL SEQ ID NO: 2 (antibody, V domains shown, heavy chain variable region of mouse antibody 1E9.2; light chain variable region of mouse antibody 1E9.2) VH: EVMLVESGGGLVKPGGSLKLSCAASGFSFSNSAMSWVRQTPEKRLEGVATISSGDSYTYYPDSVKGRFTISRDNAKNSLYLQMSSLRSEDTAVYYCARQGYGNALDYWGQGTSVTVSS VL: DIVMTQSPSSLTVTAGEKVTMSCKSSQSLLNSGNQKNYLTWYQQKPGQPPKLLIYWSSTRESGVPDRFTGSGSGTDFTLTISSVQAEDLAVYYCQNDYYYPLTFGAGTKLELK	5.085 ×10^6
9C8.1: mouse anti-human Claudin18.2 monoclonal antibody; VH SEQ ID NO: 48, VL SEQ ID NO: 49 (antibody, V domains shown, heavy chain variable region sequence of mouse antibody 9C8.1; light chain variable region sequence of mouse antibody 9C8.1) VH: QVQLQQSGAELVRPGSSVKISCKASGYAFSNYWMNWVKQRPGQGLEWIGQIYPGDGDTNYNGKFKGKATLTTDKSSSTAYMQLSSLTSEDSAVYFCARLYYGNSFAYWGQGTLVTVSS VL: DIVMTQSPSSLTVTAGEKVTVSCKSSQSLLNSGNQKNYLTWYQQKPGQPPKLLIYWASTRESGVPDRFTGSGSGTDFTLTISSVQAADLAIYYCQNDYFYPFTFGGGTKLEIK	4.969 ×10^6
2C6.9: mouse anti-human Claudin18.2 monoclonal antibody; VH SEQ ID NO: 3, VL SEQ ID NO: 4 (antibody, V domains shown, heavy chain variable region of mouse antibody 2C6.9; light chain variable region of mouse antibody 2C6.9) VH: QVQLKESGPGLVAPSQSLSITCTVSGFSLTRYGVSWVRQPPGKGLEWLGVIWGDGNTNFHSFLKSRLSISKDSSKSQVFLKLNSLQTDDTATYYCARVNFGNALDYWGQGTSVTVSS VL: DIVMTQSPSSLTVTAGEEVTMSCKSSQSLLNSGNQKNYLTWYQQKPGQPPKLLIYWASTRDSGVPDRFTGSGSGTDFTLTISSVQSEDLAVYYCQNDFIFPLTFGAGTKLELK	6.111 ×10^6

target: T1, human Claudin18.2; test: Affinity of chimeric and humanized antibodies to Ba/F3-Claudin 18.2 cells (IntelliCyt); type: binding; parameters: expressed in transfected cells; host or cells: Ba/F3 (BaF/3, DSMZ ACC300), hygromycin-selected monoclonal line
Source text: In order to evaluate the anti-Claudin18.2 humanized antibodies, codon optimized cDNAs of the heavy chains and the light chains of the candidate humanized antibodies from Example 6 were synthesized and ligated into pcDNA3.4 (by Nanjing Genscript Biotech Corporation). Expi293F cells (purchased from Thermo Incorporation) were co-transfected with pcDNA3.4 coding the heavy chain and light chain of each antibody. The antibodies were purified from the supernatant using protein A (MabSelect SuRe, GE). The affinity of the humanized antibodies to Claudin18.2 was determined using Ba/F3-Claudin18.2 cells which over-expressed human Claudin18.2. Ba/F3-Claudin18.2 cells (60000 in 10 ul buffer) were incubated with purified humanized antibodies on ice for 30 min, followed by washing with buffer (PBS+2% FBS) twice and addition of Alexa647-labeled goat-anti-human IgG Fc antibody (1:500 dilution). The cells were incubated on ice for another 30 min and analyzed by IntelliCyt.

Molecule	Max MFI
1E9.2-hz41: humanized antibody of 1E9.2; VH SEQ ID NO: 32, VL SEQ ID NO: 33 (antibody, V domains shown, heavy chain variable region of humanized antibody 1E9.2hz41; light chain variable region of humanized antibody 1E9.2hz11/1E9.2hz21/1E9.2hz31/1E9.2hz41) VH: EVQLVESGGGLVKPGGSLRLSCAASGFSFSNSAMSWVRQAPGKGLEGVATISSGDSYTYYPDSVKGRFTISRDNAKNSLYLQMNSLRAEDTAVYYCARQGYGNALDYWGQGTLVTVSS VL: DIVMTQSPDSLAVSLGERATINCKSSQSLLNSGNQKNYLTWYQQKPGQPPKLLIYWSSTRESGVPDRFSGSGSGTDFTLTISSLQAEDFAVYYCQNDYYYPLTFGGGTKVEIK	11.28 ×10^6
1E9.2-hz21: humanized antibody of 1E9.2; VH SEQ ID NO: 30, VL SEQ ID NO: 33 (antibody, V domains shown, heavy chain variable region of humanized antibody 1E9.2hz21; light chain variable region of humanized antibody 1E9.2hz11/1E9.2hz21/1E9.2hz31/1E9.2hz41) VH: EVQLVESGGGLVKPGGSLRLSCAASGFSFSNSAMSWVRQAPGKGLEGVSTISSGDSYTYYADSVKGRFTISRDNAKNSLYLQMNSLRAEDTAVYYCARQGYGNALDYWGQGTLVTVSS VL: DIVMTQSPDSLAVSLGERATINCKSSQSLLNSGNQKNYLTWYQQKPGQPPKLLIYWSSTRESGVPDRFSGSGSGTDFTLTISSLQAEDFAVYYCQNDYYYPLTFGGGTKVEIK	14.56 ×10^6
1E9.2-hz31: humanized antibody of 1E9.2; VH SEQ ID NO: 31, VL SEQ ID NO: 33 (antibody, V domains shown, heavy chain variable region of humanized antibody 1E9.2hz31; light chain variable region of humanized antibody 1E9.2hz11/1E9.2hz21/1E9.2hz31/1E9.2hz41) VH: EVQLVESGGGLVKPGGSLRLSCAASGFSFSNSAMSWVRQAPGKGLEGVATISSGDSYTYYADSVKGRFTISRDNAKNSLYLQMNSLRAEDTAVYYCARQGYGNALDYWGQGTLVTVSS VL: DIVMTQSPDSLAVSLGERATINCKSSQSLLNSGNQKNYLTWYQQKPGQPPKLLIYWSSTRESGVPDRFSGSGSGTDFTLTISSLQAEDFAVYYCQNDYYYPLTFGGGTKVEIK	10.64 ×10^6
